US20180142007A1 (AXON NEUROSCIENCE, published 2018)

Legend:
Assay in all cases: direct ELISA, tau peptide coated on plate
tau peptide 256-285 = target: T1, tau peptide 256-285 (human)
T1 construct: Synthetic peptide (EZBiolabs), numbered on tau 2N4R
T1 peptide: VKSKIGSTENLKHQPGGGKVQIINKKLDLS

tau peptide 314-342 = target: T2, tau peptide 314-342 (human)
T2 construct: Synthetic peptide (EZBiolabs), numbered on tau 2N4R
T2 peptide: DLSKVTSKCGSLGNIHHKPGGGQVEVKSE

tau peptide 352-380 = target: T3, tau peptide 352-380 (human)
T3 construct: Synthetic peptide (EZBiolabs), numbered on tau 2N4R
T3 peptide: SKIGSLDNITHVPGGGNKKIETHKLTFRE

tau peptide 282-311 = target: T4, tau peptide 282-311 (human)
T4 construct: Synthetic peptide (EZBiolabs), numbered on tau 2N4R; also called peptide derived from MTBRII
T4 peptide: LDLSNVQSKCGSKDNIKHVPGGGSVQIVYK

Measured: binding result

B1: mouse monoclonal antibody DC8E8 (antibody, mouse IgG1)
heavy: QVQLQQSGPELVKPGTSVKMPCKASGYIFTDYVISWVKQRTGQGLEWIGEIFPRSGSTYYNEKFKGKATLTADKSSNTAYMQLSSVTSEDSAVYFCARDYYGTSFAMDYWGQGTSVTVSSAKTTPPSVYPLAPGSAAQTNSMVTLGCLVKGYFPEPVTVTWNSGSLSSGVHTFPAVLQSDLYTLSSSVTVPSSTWPSQTVTCNVAHPASSTKVDKKIVPRDCGCKPCICTVPEVSSVFIFPPKPKDVLTITLTPKVTCVVVDISKDDPEVQFSWFVDDVEVHTAQTKPREEQINSTFRSVSELPIMHQDWLNGKEFKCRVNSAAFPAPIEKTISKTKGRPKAPQVYTIPPPKEQMAKDKVSLTCMITNFFPEDITVEWQWNGQPAENYKNTQPIMDTDGSYFVYSKLNVQKSNWEAGNTFTCSVLHEGLHNHHTEKSLSHSPGK
VL: DIVMSQSPSSLAVSAGEKVTMSCKSSQSLLNSRTRKNYLAWYQQKPGQSPKLLIYWASTRESGVPDRFTGSGSGTDFTLTISSVQAEDLAVYYCKQSFYLRTFGGGTKLDIK
notes: also called murine DC8E8; mouse DC8E8
binds: tau peptide 256-285 | tau peptide 314-342 | tau peptide 352-380

B2: chimeric DC8E8 (isotype not stated where tested) (antibody)
VH: QVQLQQSGPELVKPGTSVKMPCKASGYIFTDYVISWVKQRTGQGLEWIGEIFPRSGSTYYNEKFKGKATLTADKSSNTAYMQLSSVTSEDSAVYFCARDYYGTSFAMDYWGQGTSVTVSS
light: DIVMSQSPSSLAVSAGEKVTMSCKSSQSLLNSRTRKNYLAWYQQKPGQSPKLLIYWASTRESGVPDRFTGSGSGTDFTLTISSVQAEDLAVYYCKQSFYLRTFGGGTKLDIKRTVAAPSVFIFPPSDEQLKSGTASVVCLLNNFYPREAKVQWKVDNALQSGNSQESVTEQDSKDSTYSLSSTLTLSKADYEKHKVYACEVTHQGLSSPVTKSFNRGEC
notes: Whole chimeric antibody with human constant regions; also called chimeric antibody
binds: all assays above
